# Target: FMAL-labeled F-actin (rabbit skeletal muscle) (rabbit) (UniProt P68135)
# Experiment: FRET or BRET
Substance,change of FRET against WT at 2.5 uM C0-C2 (direction not told) [%],increase of FRET over WT at 2.5 uM C0-C2 [%],FRET as percent of WT at 2.5 uM C0-C2 (% of wild type FRET)
"TMR-C0-C2^(Cys249, L349R), PKA-phosphorylated (domain or fragment)",31,,
"TMR-C0-C2^(Cys249, L349R), unphosphorylated (domain or fragment)",10,,
"TMR-C0-C2^(Cys249, L352P), PKA-phosphorylated (domain or fragment)",,74 to 160,
"TMR-C0-C2^(P330C, L349R), PKA-phosphorylated (domain or fragment)",,166,
"TMR-C0-C2^(P330C, L349R), unphosphorylated (domain or fragment)",,89,
"TMR-C0-C2^(P330C, L352P), PKA-phosphorylated (domain or fragment)",,74 to 160,
"TMR-C0-C2^(P330C, R282W), PKA-phosphorylated (domain or fragment)",,105,
"TMR-C0-C2^(P330C, T59A), unphosphorylated (domain or fragment)",,21,
"TMR-C0-C2^(S85C, E334K), PKA-phosphorylated (domain or fragment)",,,45
"TMR-C0-C2^(S85C, L349R), PKA-phosphorylated (domain or fragment)",4,,
"TMR-C0-C2^(S85C, L349R), unphosphorylated (domain or fragment)",22,,

# Source: publication doi:10.1101/2022.09.07.507024
